B1: MutS from Pseudomonas aeruginosa (natural protein, UniProt Q9HY08 1-855, looked up)
chain: MTDLSQHTPMMQQYFKLKHQHPDQLMFYRMGDFYELFYEDAKKAAKLLDITLTARGQSGGKAIPMAGIPFHSAEGYLAKLVKLGESVAICEQIGDPATSKGPVERQVVRIITPGTVSDEALLDERRDNLLAAILGDERLFGLAVLDITSGRFSVQEIKGWETLLAELERLNPAELLIPDDWPQGLPAEKRRGVRRRAPWDFDRDSAHKSLCQQFGTQDLKGFGCQNLTLAIGAAGCLLAYAKETQRTALPHLRSLRHDRLDDTVILDGASRRNLELDINLSGGRENTLQSVVDRCQTAMASRLMSRWLNRPLRDRAVLEARQESIACLLERYRFENLQPQLKEIGDLERILARIGLRNARPRDLARLRDALAALPDLQNAMTELEAPHLQALATTIGTYPELAELLAKAIIDNPPAVIRDGGVIKTGYDAELDELQALSENAGQFLMDLEAREKARTGLPNLKVGYNRIHGYFIELPRVQAEQAPADYIRRQTLKGAERFITPELKAFEDKALSAQSRALAREKALYEELLERLIGHLAPLQDSASALAELDVLANLAERALNLDLNRPRFVEHTCLHIEQGRHPVVEQVLETPFVANDLALDADTRMLVITGPNMGGKSTYMRQTALIVLLAHIGSFVPAARCELSLVDRIFTRIGSSDDLAGGRSTFMVEMSETANILHNATDKSLVLMDEVGRGTSTFDGLSLAWAAAEDLARTRAFTLFATHYFELTVLPESQPAVANVHLNATEHNERIVFLHHVLPGPASQSYGLAVAQLAGVPAPVIQRAREHLKRLETTSLPHEMPSQQSGKPASPMQSDLFASLPHPVIDELSRINPDDISPRQALDLLYAWKMRV
B2: MutSN279A (natural protein, Pseudomonas aeruginosa, UniProt Q9HY08 1-855, looked up)
chain: MTDLSQHTPMMQQYFKLKHQHPDQLMFYRMGDFYELFYEDAKKAAKLLDITLTARGQSGGKAIPMAGIPFHSAEGYLAKLVKLGESVAICEQIGDPATSKGPVERQVVRIITPGTVSDEALLDERRDNLLAAILGDERLFGLAVLDITSGRFSVQEIKGWETLLAELERLNPAELLIPDDWPQGLPAEKRRGVRRRAPWDFDRDSAHKSLCQQFGTQDLKGFGCQNLTLAIGAAGCLLAYAKETQRTALPHLRSLRHDRLDDTVILDGASRRNLELDIALSGGRENTLQSVVDRCQTAMASRLMSRWLNRPLRDRAVLEARQESIACLLERYRFENLQPQLKEIGDLERILARIGLRNARPRDLARLRDALAALPDLQNAMTELEAPHLQALATTIGTYPELAELLAKAIIDNPPAVIRDGGVIKTGYDAELDELQALSENAGQFLMDLEAREKARTGLPNLKVGYNRIHGYFIELPRVQAEQAPADYIRRQTLKGAERFITPELKAFEDKALSAQSRALAREKALYEELLERLIGHLAPLQDSASALAELDVLANLAERALNLDLNRPRFVEHTCLHIEQGRHPVVEQVLETPFVANDLALDADTRMLVITGPNMGGKSTYMRQTALIVLLAHIGSFVPAARCELSLVDRIFTRIGSSDDLAGGRSTFMVEMSETANILHNATDKSLVLMDEVGRGTSTFDGLSLAWAAAEDLARTRAFTLFATHYFELTVLPESQPAVANVHLNATEHNERIVFLHHVLPGPASQSYGLAVAQLAGVPAPVIQRAREHLKRLETTSLPHEMPSQQSGKPASPMQSDLFASLPHPVIDELSRINPDDISPRQALDLLYAWKMRV
B3: MutSR272A (natural protein, Pseudomonas aeruginosa, UniProt Q9HY08 1-855, looked up)
chain: MTDLSQHTPMMQQYFKLKHQHPDQLMFYRMGDFYELFYEDAKKAAKLLDITLTARGQSGGKAIPMAGIPFHSAEGYLAKLVKLGESVAICEQIGDPATSKGPVERQVVRIITPGTVSDEALLDERRDNLLAAILGDERLFGLAVLDITSGRFSVQEIKGWETLLAELERLNPAELLIPDDWPQGLPAEKRRGVRRRAPWDFDRDSAHKSLCQQFGTQDLKGFGCQNLTLAIGAAGCLLAYAKETQRTALPHLRSLRHDRLDDTVILDGASRANLELDINLSGGRENTLQSVVDRCQTAMASRLMSRWLNRPLRDRAVLEARQESIACLLERYRFENLQPQLKEIGDLERILARIGLRNARPRDLARLRDALAALPDLQNAMTELEAPHLQALATTIGTYPELAELLAKAIIDNPPAVIRDGGVIKTGYDAELDELQALSENAGQFLMDLEAREKARTGLPNLKVGYNRIHGYFIELPRVQAEQAPADYIRRQTLKGAERFITPELKAFEDKALSAQSRALAREKALYEELLERLIGHLAPLQDSASALAELDVLANLAERALNLDLNRPRFVEHTCLHIEQGRHPVVEQVLETPFVANDLALDADTRMLVITGPNMGGKSTYMRQTALIVLLAHIGSFVPAARCELSLVDRIFTRIGSSDDLAGGRSTFMVEMSETANILHNATDKSLVLMDEVGRGTSTFDGLSLAWAAAEDLARTRAFTLFATHYFELTVLPESQPAVANVHLNATEHNERIVFLHHVLPGPASQSYGLAVAQLAGVPAPVIQRAREHLKRLETTSLPHEMPSQQSGKPASPMQSDLFASLPHPVIDELSRINPDDISPRQALDLLYAWKMRV
B4: MutSR272E (natural protein, Pseudomonas aeruginosa, UniProt Q9HY08 1-855, looked up)
chain: MTDLSQHTPMMQQYFKLKHQHPDQLMFYRMGDFYELFYEDAKKAAKLLDITLTARGQSGGKAIPMAGIPFHSAEGYLAKLVKLGESVAICEQIGDPATSKGPVERQVVRIITPGTVSDEALLDERRDNLLAAILGDERLFGLAVLDITSGRFSVQEIKGWETLLAELERLNPAELLIPDDWPQGLPAEKRRGVRRRAPWDFDRDSAHKSLCQQFGTQDLKGFGCQNLTLAIGAAGCLLAYAKETQRTALPHLRSLRHDRLDDTVILDGASRENLELDINLSGGRENTLQSVVDRCQTAMASRLMSRWLNRPLRDRAVLEARQESIACLLERYRFENLQPQLKEIGDLERILARIGLRNARPRDLARLRDALAALPDLQNAMTELEAPHLQALATTIGTYPELAELLAKAIIDNPPAVIRDGGVIKTGYDAELDELQALSENAGQFLMDLEAREKARTGLPNLKVGYNRIHGYFIELPRVQAEQAPADYIRRQTLKGAERFITPELKAFEDKALSAQSRALAREKALYEELLERLIGHLAPLQDSASALAELDVLANLAERALNLDLNRPRFVEHTCLHIEQGRHPVVEQVLETPFVANDLALDADTRMLVITGPNMGGKSTYMRQTALIVLLAHIGSFVPAARCELSLVDRIFTRIGSSDDLAGGRSTFMVEMSETANILHNATDKSLVLMDEVGRGTSTFDGLSLAWAAAEDLARTRAFTLFATHYFELTVLPESQPAVANVHLNATEHNERIVFLHHVLPGPASQSYGLAVAQLAGVPAPVIQRAREHLKRLETTSLPHEMPSQQSGKPASPMQSDLFASLPHPVIDELSRINPDDISPRQALDLLYAWKMRV
B5: MutSF33A (natural protein, Pseudomonas aeruginosa, UniProt Q9HY08 1-855, looked up)
chain: MTDLSQHTPMMQQYFKLKHQHPDQLMFYRMGDAYELFYEDAKKAAKLLDITLTARGQSGGKAIPMAGIPFHSAEGYLAKLVKLGESVAICEQIGDPATSKGPVERQVVRIITPGTVSDEALLDERRDNLLAAILGDERLFGLAVLDITSGRFSVQEIKGWETLLAELERLNPAELLIPDDWPQGLPAEKRRGVRRRAPWDFDRDSAHKSLCQQFGTQDLKGFGCQNLTLAIGAAGCLLAYAKETQRTALPHLRSLRHDRLDDTVILDGASRRNLELDINLSGGRENTLQSVVDRCQTAMASRLMSRWLNRPLRDRAVLEARQESIACLLERYRFENLQPQLKEIGDLERILARIGLRNARPRDLARLRDALAALPDLQNAMTELEAPHLQALATTIGTYPELAELLAKAIIDNPPAVIRDGGVIKTGYDAELDELQALSENAGQFLMDLEAREKARTGLPNLKVGYNRIHGYFIELPRVQAEQAPADYIRRQTLKGAERFITPELKAFEDKALSAQSRALAREKALYEELLERLIGHLAPLQDSASALAELDVLANLAERALNLDLNRPRFVEHTCLHIEQGRHPVVEQVLETPFVANDLALDADTRMLVITGPNMGGKSTYMRQTALIVLLAHIGSFVPAARCELSLVDRIFTRIGSSDDLAGGRSTFMVEMSETANILHNATDKSLVLMDEVGRGTSTFDGLSLAWAAAEDLARTRAFTLFATHYFELTVLPESQPAVANVHLNATEHNERIVFLHHVLPGPASQSYGLAVAQLAGVPAPVIQRAREHLKRLETTSLPHEMPSQQSGKPASPMQSDLFASLPHPVIDELSRINPDDISPRQALDLLYAWKMRV
B6: MutSR842E (natural protein, Pseudomonas aeruginosa, UniProt Q9HY08 1-855, looked up)
chain: MTDLSQHTPMMQQYFKLKHQHPDQLMFYRMGDFYELFYEDAKKAAKLLDITLTARGQSGGKAIPMAGIPFHSAEGYLAKLVKLGESVAICEQIGDPATSKGPVERQVVRIITPGTVSDEALLDERRDNLLAAILGDERLFGLAVLDITSGRFSVQEIKGWETLLAELERLNPAELLIPDDWPQGLPAEKRRGVRRRAPWDFDRDSAHKSLCQQFGTQDLKGFGCQNLTLAIGAAGCLLAYAKETQRTALPHLRSLRHDRLDDTVILDGASRRNLELDINLSGGRENTLQSVVDRCQTAMASRLMSRWLNRPLRDRAVLEARQESIACLLERYRFENLQPQLKEIGDLERILARIGLRNARPRDLARLRDALAALPDLQNAMTELEAPHLQALATTIGTYPELAELLAKAIIDNPPAVIRDGGVIKTGYDAELDELQALSENAGQFLMDLEAREKARTGLPNLKVGYNRIHGYFIELPRVQAEQAPADYIRRQTLKGAERFITPELKAFEDKALSAQSRALAREKALYEELLERLIGHLAPLQDSASALAELDVLANLAERALNLDLNRPRFVEHTCLHIEQGRHPVVEQVLETPFVANDLALDADTRMLVITGPNMGGKSTYMRQTALIVLLAHIGSFVPAARCELSLVDRIFTRIGSSDDLAGGRSTFMVEMSETANILHNATDKSLVLMDEVGRGTSTFDGLSLAWAAAEDLARTRAFTLFATHYFELTVLPESQPAVANVHLNATEHNERIVFLHHVLPGPASQSYGLAVAQLAGVPAPVIQRAREHLKRLETTSLPHEMPSQQSGKPASPMQSDLFASLPHPVIDELSRINPDDISPEQALDLLYAWKMRV

Biological target: the molecule itself
Assay: native gel or EMSA

| Protein | stoichiometry N |
| --- | --- |
| B1 | 4 |
| B2 | 4 |
| B3 | 4 |
| B4 | 4 |
| B5 | 4 |
| B6 | 2 |

— doi:10.1101/2020.05.01.070730 (bioRxiv, 2020)
